Experimental data published in the supplement of paper PMC9170038.

Tested on: MS2 coat protein
Test: apparent KD of MS2 coat protein; higher = weaker reporter binding
Settings: Eterna round: R107
Experimental: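 RNA-MaP round R107: designed RNA switches with theophylline, tryptophan, arginine or FMN aptamers are transcribed on-chip within common flanks. They are titrated with SNAP-549-labelled MS2 coat protein in RNA-MaP buffer (100 mM Tris pH 7.5, 80 mM KCl, 4 mM MgCl2), without ligand or with the indicated ligand. Median apparent KD per design.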

[1] = input ligand: theophylline 20 uM
[2] = input ligand: theophylline 2 mM
[3] = input ligand: tryptophan 2.4 mM

Sequence | apparent KD of MS2 coat protein (input ligand: arginine 13.2 mM) [nM] | apparent KD of MS2 coat protein [1] [nM] | apparent KD of MS2 coat protein [2] [nM] | apparent KD of MS2 coat protein [3] [nM] | apparent KD of MS2 coat protein (input ligand: none) [nM]
CAUCCUAGUACAUGAGGAUCACCCAUGUAUCGAGGACCGGUACGGCCGCCACUCGAAUGGCGGAUCGUUAAUCCUCUAGGAUGGA [Tryp A Ex 4a] | 11.7 | 14 | 11.5 | – | –
UGUAUGGACUGAAGGAGCGGAAAAUAAACCUGAGGAUCACCCGGGUAAUAGGCGAAAGCCAUCCAGGUAGGUCGCAGUCCAUACU | 156 | 233 | 385 | 291 | –
UGUAUGGACUGAAGGAGCGCCUCAAACAUGAGGAUCACCCAUGUGGACAAAUAAGUCCUUGGGCAGGUAGGUCGCAGUCCAUACU [ArgBX 7 #StaticStem #MS2Late] | 73.5 | 91.2 | 90.6 | 66.1 | 82.8
UGUAUGUGAUCUGAUACCAGAGUUGAUAAUCUGAGGAUCACCCUGGUAAGGCGAAAGCCACUCCCUUGGCAGCAGAUCGCAUACU | 106 | 874 | 175 | 725 | 306
GGCACAUAGUCGGCCGCCACUAGAAUAAGAUGGAAUAACAUGAGGAUCACCCAUGUAAAAGGGACUAGGACCGGGACUAUGUGCC [Goat] | 12.9 | 15.7 | 14.3 | – | –
CAUUGAGCAGCUGAUACCAGUGCCUGAACUUACAUGAGGAUCACCCAUGUAUGCCCAAAACACCCUUGGCAGCAGAGGAAGAUCG [theeternabot_sameState_MS2_Theo_B_38] | 15.2 | 18.9 | – | 14.5 | –
GGUCGCCAACAUGGGUGGGUGACCCUGGAAGGAGCGAGCGAGAGCUCAGGUAGGUCGCCAGAACAUGAGGAUCACCCAUGUAAUA [(A)''-(M)'-(A)'(Arg1)-(Arg2)-(M1)-(M2)_Design14] | 38.3 | 90 | 139 | 65.8 | 63.5
ACACAUGAGGAUCACCCAUGUGCGCUGGAAGGAGCGCAGAAUCAUGCAGGUAGGUCGCCAGUGCCUUUUGAUAAAGGGAAAAGAA [Cezaquce] | 66.1 | 94.6 | 69.3 | 60.6 | 86.1
ACUUGUGAGUCGGCCGCCACUCACCGGUAGUGUCACUCGUUCACAAACAUGAGGAUCACCCAUGUGAGGACCGGGACAGUCGGGU [theeternabot_exclusion_MS2_Trp_B_28] | 13.5 | 25.4 | 16.3 | – | –
ACCUCAUAGGCGGCCGCCACUGUAAUGACUACGUCAAACAUGAGGAUCACCCAUGUAGUCAAUCACAGGACCGGGUCAUGGGUAG [Tryp B SS s2] | 27.7 | 45.6 | 41.4 | – | –
GAGGAAACUCACAUGAGGAUCACCCAUGUACGAGGACCGGUACGGCCGCCACUCGAAACCAUGGGCGGUAGUACGUGGAAGCUUG [Design 2 MOD 2] | 21.1 | 31.3 | 23.8 | – | –
CGAUCUUUCGAAAGAAGGAUCGAGUCUGAUACCAGAGACGAAAGUCUCCCUUGGCAGCAGUGCCAACAUGAGGAUCACCCAUGUU [Theophylline A 10] | 16.2 | 19.1 | – | 15.8 | –
AGUAACAUGAGGAUCACCCAUGUAUGAGAAGGAGCGUGUUUUAACACAGGUAGGUCGCUCAAUAUUAUUUACUAGCGAAAGCUAG [JR_SSArginiA_Sub007] | 22 | 23.3 | 17.9 | 18 | 14.6
GGGCCCGGGCGCGAGCCCGGGCCCAUUGAUACCAGUGAAGAAGAGCGCCCUUGGCAGCGAAUCCUAACAUGAGGAUCACCCAUGU [5.P] | 63.2 | 74.3 | 77.3 | 38.8 | 43.6
UGGGAAGGAGGAAGGAGCGCCAUAAGGGUGACUGUCUGGGUACAUGAGGAUCACCCAUGUAGGCAGGUAGGUCGCCUCGCUCUCA [Bibienoned] | 10.3 | 11.9 | 10.4 | 10.4 | 10.1
UCGCUCUGGGUGAGAUCCGGAGAUGUGGAAGGAGCGCUGGAAACAGCAGGUAGGUCGCCAACGGACAUGAGGAUCACCCAUGUAC [Same State - Arginine A (Freestyle 19)] | 41.4 | 75.3 | 31.9 | 81.5 | 44.4
AAUAUUUGCCACAUGAGGAUCACCCAUGUGCGAGGACCGGUACGGCCGCCACUCGGUCGGUGGUUAAUGAAGAUAAACAAUAAUG [XTryp A #11] | 7.7 | 15.7 | 11.5 | 11.2 | 12
UGUAUGUGAUCUGAUACCAGUCCAACUGGUAAAACUUGAGGAUCACCCAGGUAAAAUUGGGACCCUUGGCAGCAGAUCGCAUACU | 150 | 597 | 129 | 705 | 316
GCAUCCUAGUCGGCCGCCACUGCAACAUGAGGAUCACCCAUGUCUGUAUGUGAUCCAUGCAGUAGCAGGACCGGGACUAGGAUGC [(T1)-(M1)-(M2)-(T)''-(M)'-(T)'-(T2)_Design3_2/18/17] | 237 | 467 | 833 | – | –

Sequence | apparent KD of MS2 coat protein (input ligand: arginine 13.2 mM) [nM] | apparent KD of MS2 coat protein [1] [nM] | apparent KD of MS2 coat protein [2] [nM] | apparent KD of MS2 coat protein [3] [nM] | apparent KD of MS2 coat protein (input ligand: none) [nM]
ACCUGCGUUUGUUUCUUUCUGACGCAGGUUCGAGGACCGGUACGGCCGCCACUCGGACAUGAGGAUCACCCAUGUUUGACAUGGG [#02 Exclusion Tryptophan A] | 229 | 238 | 281 | – | –
UGGGUACAUGAGGAUCACCCAUGUACUGAAGGAGCGAGAAUUAUCUCAGGUAGGUCGCAGACAUGAGGAUCACCCAUGUAGUAGG [Exclusion Arginine A GF 12] | 25.3 | 30.6 | 37.2 | 24.2 | 27.3
ACAUAUUGGUGGUACCAACGAAGGCGGAAACGAGGACCGGUACGGCCGCCACUCGGCGACAUGAGGAUCACCCAUGUGGUUAAAA [Exclusion - Tryptophan A (Freestyle 2)] | – | 153 | 851 | 972 | 149
GGAUAGGACACGGCCGCCACUGCCUAGGAUACUAGAAACAUUUCCUCACAUGAGGAUCACCCAUGUAGGACCGGGUGUCCUAUCG | 74.9 | 161 | 121 | – | –
AGAUUCGACACGGCCGCCACUCGUGGUGGAUUACCUAGUGUCGAACAUGAGGAUCACCCAUGUACGAGGACCGGGUGUUGAGUCU [XTryp B #18] | 40.5 | 85.6 | 86 | – | –
GUCCUCAGCCGAAGGAGCGCUAGAAGAUGACAUGAGGAUCACCCAUGUGUGUGAUGUGGCUAGCAGGUAGGUCGCGGAGAGGAUU [Exclusion - Arginine B (Freestyle 16)] | 19.8 | 37.1 | 28 | 20.6 | 22.9
GACAUGAGGAUCACCCAUGUAUUGGGUGAUACCAGCCUGAAUCAUGGCCCUUGGCAGCACCGCGCUAACUUUAUGUUUGCGAACC [Mavegeceri] | 95 | 210 | – | 56.5 | –
GCUUGGGUGGCCCAGCCCUGGCAGGGCGAUACCAGCCCGGUAACGGGCCCUUGGCAGCGCACAUGAGGAUCACCCAUGUGGUGCG [#1 Exclusion - Theophylline A Attempt #28 (HarryS)] | 22.4 | 60.3 | 85 | 44.9 | 52.4
AACAUGAGGAUCACCCAUGUUAAGUAUGAAGGAGCGUCGGAAACGACAGGUAGGUCGCAUACUUGGCCUUGUACUUCGUGUGUCU [#02 Exclusion - Arginine A] | 14.2 | 17.9 | 14.4 | 14.7 | 14.3
UUGGGUAUGCGAAGGAGCGGGAAAUAUAUAUAUAUAAUCCUAACAUGAGGAUCACCCAUGUCCCAGGUAGGUCGCGCAUGUUUGG [12.K] | 128 | 250 | 423 | 247 | 207
GUCCUAGCGAGCACUCGCUAGGACGCGGAUACCAGCGAGGUCCAUCGCCCUUGGCAGCCGAACAUGAGGAUCACCCAUGUCGGUA [#1 Same State - Theophylline A Attempt #17 (HarryS)] | 12.6 | 13.2 | 18 | 9.86 | 10
GGACUCGUCACGGCCGCCACUGCGGUGGUGUGACAUGAGGAUCACCCAUGUUGUCAUGCGGCCCUUAGGACCGGGUGUCGCUUCC [#1 Exclusion - Tryptophan B Attempt #24 (HarryS)] | 124 | 221 | 336 | – | –
AUCUUGUACCGUAAUACUUUACGUUGGGAUACCAGCAUGGACCCAUGCCCUUGGCAGCUUUACAUGAGGAUCACCCAUGUUGUAG [SSTheo A #28] | 26.3 | 42.2 | – | 39.9 | –
GCUAGGUCAUCGGCCGCCACUAACGAAGGUUCGAACAUGAGGAUCACCCAUGUGCCACAUGCGCAUAGGACCGGGAUGACCUAGC [SSTB NP+V+V2 #7 +-Same Structure] | 13.8 | 26.2 | 20.8 | 11.4 | 17.3
GACAUGAGGAUCACCCAUGUUUUCUAUGAAGGAGCGUCGGAAAUGACAGGUAGGUCGCAUGGUAGGACUUGUAUCUUGUAUGUAG [EAA NP+V+V2 #10] | 13.4 | 16.2 | 14.7 | 15.5 | –
GCCUCCAGCCGAAGGAGCGCUAGAAGGUGACAUGAGGAUCACCCAUGUGUGUGAUGUGGCUAGCAGGUAGGUCGCGGAGGAGGUU [Exclusion - Arginine B (Freestyle 20)] | 62.7 | 133 | 120 | 89.8 | 68.5
UUAAUCUAUGAAGAAAACUUUAUAGCAGAAGGAGCGUGAUAAAACACAGGUAGGUCGCUGAAGGGAACAUGAGGAUCACCCAUGU [AstrosSSArgA#19] | 23.7 | 36.7 | 31.1 | 26.5 | 22.7
UCGUGCAGAGCGGCCGCCACUGUAUUGCGUGCGGAUGACGGAACAUGAGGAUCACCCAUGUUGUUUAGGACCGGGCUUGCCACCA ['xmullin] | 12.4 | 15.9 | 14.3 | – | –
GGGUAAGAUCCGGAUACCAGCGAACAUGAGGAUCACCCAUGUGACCUAAGAUAGGCUAAACGCCCUUGGCAGCCGAGAUAGCGUU [Same State Theophylline B GF 6] | 27.2 | 34.2 | 30.7 | 39.5 | 41.3
